Data from article PMC4069081, “Multivalent Viral Capsids with Internal Cargo for Fibrin Imaging” (PLoS ONE, 2014).

What was measured:
[1] = biological target: fibrin clots formed from purified bovine fibrinogen with thrombin and CaCl2 (bovine) (UniProt P12799)
fibrin [2] = details: compared with original peptide (Gly-Pro-Arg); ref [41]; cited from earlier work
Method: In this work, a peptide targeting group (GPR) with an affinity for fibrin was chosen to create a thrombus targeted VLP [38]. The GPR peptide was derived from the N-terminus of the α-chain of fibrin (Gly-Pro-Arg), and was discovered to bind to a pocket in the C-terminal region of the γ-chain [39], [40]. […] A GPR peptide bearing an o-aminophenol for coupling to MS2 was prepared using solid phase peptide synthesis (Figure 1b). The sequence Gly-Gly-Ser-Lys-Gly-Tyr was added to the peptide to increase the spacing between the binding residues and the capsid, as well as provide a functional handle for modification (Tyr). For peptide samples used in op ...

[3] = compared with original peptide (Gly-Pro-Arg); ref [41]; cited from earlier work
Description: (§1) In this work, a peptide targeting group (GPR) with an affinity for fibrin was chosen to create a thrombus targeted VLP [38]. The GPR peptide was derived from the N-terminus of the α-chain of fibrin (Gly-Pro-Arg), and was discovered to bind to a pocket in the C-terminal region of the γ-chain [39], [40].

fibrin [4] = details: competitive binding to the fibrin polymerization pocket; ref [39], [40]; cited from earlier work
Description: as §1

free GPS peptide with C-terminal tyrosine
thrombin-induced clotting time of fibrin (light scattering at 350 nm) at 20 µM peptide; unchanged [1]: 13 min

GPS-MS2: bacteriophage MS2 T19pAF/N87C capsid with the GPS control peptide coupled to its exterior
thrombin-induced clotting time of fibrin (light scattering at 350 nm) at 222 nM MS2 capsid (~20 µM peptide); unchanged [1]: 16 min

free GPR peptide with C-terminal tyrosine
peptide concentration at which thrombin-induced clotting is inhibited (10 µM to 1.7 mM tested) [1]: > 300 µM
thrombin-induced clotting time of fibrin (light scattering at 350 nm) at 20 µM peptide; unchanged [1]: 18 min

Gly-Pro-Arg-Pro-Pro
Fibrin binding of extended peptide (fibrin [2]): improved fibrin-binding
Proteolytic resistance [3]: increased proteolytic resistance

Gly-Pro-Arg [originally discovered peptide from N-terminus of the α-chain of fibrin]
Inhibition of thrombin-mediated fibrin clotting (fibrin [4]): inhibit thrombin-mediated fibrin clotting

GPR-MS2: bacteriophage MS2 T19pAF/N87C capsid with the GPR fibrin-targeting peptide coupled to its exterior
thrombin-induced clotting time of fibrin (light scattering at 350 nm) at 222 nM MS2 capsid (~20 µM peptide) [1]: 51 min

MS2 capsids (T19pAF/N87C) without peptide
thrombin-induced clotting time of fibrin (light scattering at 350 nm) at 222 nM MS2 capsid; unchanged [1]: 16 min
